This test deals with T1, SEMA4D-V5 (expressed from pDESTSEMA4D-V5) (UniProt Q92854 22-862, limits assumed).
T1 construct: Control membrane protein co-transfected in 293T cells
T1 sequence (looked up): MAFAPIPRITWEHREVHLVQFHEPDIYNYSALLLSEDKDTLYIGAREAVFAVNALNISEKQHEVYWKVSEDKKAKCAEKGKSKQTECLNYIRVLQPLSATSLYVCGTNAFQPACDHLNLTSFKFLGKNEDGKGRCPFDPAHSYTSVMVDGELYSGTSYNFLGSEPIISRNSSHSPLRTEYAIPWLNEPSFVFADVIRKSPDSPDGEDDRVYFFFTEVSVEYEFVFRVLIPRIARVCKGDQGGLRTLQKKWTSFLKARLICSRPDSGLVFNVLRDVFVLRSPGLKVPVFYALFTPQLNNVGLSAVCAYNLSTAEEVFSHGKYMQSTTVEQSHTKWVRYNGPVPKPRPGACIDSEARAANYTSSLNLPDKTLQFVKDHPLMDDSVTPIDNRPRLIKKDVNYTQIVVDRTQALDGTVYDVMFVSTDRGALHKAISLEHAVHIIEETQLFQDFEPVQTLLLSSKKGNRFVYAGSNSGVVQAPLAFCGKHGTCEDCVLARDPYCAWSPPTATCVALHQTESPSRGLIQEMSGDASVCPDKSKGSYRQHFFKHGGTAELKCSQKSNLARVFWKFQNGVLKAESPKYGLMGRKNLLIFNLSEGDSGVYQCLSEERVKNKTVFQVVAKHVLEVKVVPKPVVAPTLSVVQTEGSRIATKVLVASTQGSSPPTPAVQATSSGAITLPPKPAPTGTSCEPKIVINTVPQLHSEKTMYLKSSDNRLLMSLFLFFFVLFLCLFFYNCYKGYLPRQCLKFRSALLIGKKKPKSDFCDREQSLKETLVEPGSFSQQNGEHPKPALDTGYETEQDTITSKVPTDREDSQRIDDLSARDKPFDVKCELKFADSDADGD
Put plainly: co-immunoprecipitation (anti-HA or anti-V5) and western blot from lysates of co-transfected 293T cells. As for the experimental part:
Cells were harvested 72-hours later by scraping in 1 ml PBS. The pellets were lyzed on ice for 60 mins. in 500 ul lysis buffer: 50 mM Tris-HCl; pH7.5, 150 mM NaCl, 1 mM EDTA, 1% NP40, 0.25% Deoxycholate, 50 mMNaF, 20 mM Na3OV4 and protease inhibitors. 1 mM PMSF (0.3M stock solution in DMSO) was added to the lysis buffer before use. DNA was sheared with a needle. Lysates were then spun down for 10 mins. at 14,000 rpm. 200 ul cell lysates were incubated, overnight at 4° C. with gentle rocking, with lug of either rabbit polyclonal antibody to HA or V5 epitope tag (abcam; ab9110-100 and ab9116-100, respectively).
The next morning, a suspension protein A/G (50:50) agarose beads was washed twice in PBS then in lysis buffer. The beads (50% slurry) were incubated on ice in the lysis buffer for one hour. 30 ul of the proteinA/G suspension were added to the lysates and the mixture incubated for 4 hours at 4° C. with gentle rocking. Beads were then washed 3 times with 1 ml lysis buffer. Beads were resuspended in 30 μl sample buffer.
After protein transfer to membrane blots. Membranes were blocked over-night in PBST-5% Milk. The next day blots of the immunoprecipitation with V5 antibody were incubated with HA hybridoma supernatant (dilution 1:1000) for 1 hour whereas blots of the immunoprecipitation with HA antibody were incubated with V5-HRP (dilution 1:5000)
(In western blotting, separated proteins are transferred to a membrane and probed.)

B1: HA-tm-PTPε (expressed from pDisplayHA tm-PTPε-FL#9) (receptor, not shown: small tags and cut ends)
chain: LRGNETTADSNETTTTSGPPDPGASQPLLAWLLLPLLLLLLVLLLAAYFFRFRKQRKAVVSTSDKKMPNGILEEQEQQRVMLLSRSPSGPKKYFPIPVEHLEEEIRIRSADDCKQFREEFNSLPSGHIQGTFELANKEENREKNRYPNILPNDHSRVILSQLDGIPCSDYINASYIDGYKEKNKFIAAQGPKQETVNDFWRMVWEQKSATIVMLTNLKERKEEKCHQYWPDQGCWTYGNIRVCVEDCVVLVDYTIRKFCIQPQLPDGCKAPRLVSQLHFTSWPDFGVPFTPIGMLKFLKKVKTLNPVHAGPIVVHCSAGVGRTGTFIVIDAMMAMMHAEQKVDVFEFVSRIRNQRPQMVQTDMQYTFIYQALLEYYLYGDTELDVSSLEKHLQTMHGTTTHFDKIGLEEEFRKLTNVRIMKENMRTGNLPANMKKARVIQIIPYDFNRVILSMKRGQEYTDYINASFIDGYRQKDYFIATQGPLAHTVEDFWRMIWEWKSHTIVMLTEVQEREQDKCYQYWPTEGSVTHGEITIEIKNDTLSEAISIRDFLVTLNQPQARQEEQVRVVRQFHFHGWPEIGIPAEGKGMIDLIAAVQKQQQQTGNHPITVHCSAGAGRTGTFIALSNILERVKAEGLLDVFQAVKSLRLQRPHMVQTLEQYEFCYKVVQDFIDIFSDYANFK
notes: Transiently expressed in 293T cells and tested from cell lysates; The tag is placed N-terminal on the strength of the name
For B1, the binding result was “no binding”.

For the origin of these results see US20090317391A1 (Novartis, published 2009).
